The supplement of paper PMC9876800

Tested on: peptide library, one residue held at a place counted from the S/T acceptor
Test: relative phosphorylation of the sub-library (ratio to the mean residue at this position); higher = residue favoured
Summary of the method: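 Purified recombinant kinases (human or orthologue constructs) were incubated in 384-well plates with biotinylated degenerate peptide sub-libraries, each fixing one residue at one position around a central Ser/Thr. Peptides were at 50 μM, with 50 μM ATP spiked with γ-32P-ATP, for 90 min under kinase-specific conditions. Spots on streptavidin membranes were phosphorimaged and quantified by densitometry. Relative sub-library phosphorylation is a ratio to the mean residue at that position.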

Sequence of TSSK6, construct: Full length, human (Q9BXA6 whole entry, looked up): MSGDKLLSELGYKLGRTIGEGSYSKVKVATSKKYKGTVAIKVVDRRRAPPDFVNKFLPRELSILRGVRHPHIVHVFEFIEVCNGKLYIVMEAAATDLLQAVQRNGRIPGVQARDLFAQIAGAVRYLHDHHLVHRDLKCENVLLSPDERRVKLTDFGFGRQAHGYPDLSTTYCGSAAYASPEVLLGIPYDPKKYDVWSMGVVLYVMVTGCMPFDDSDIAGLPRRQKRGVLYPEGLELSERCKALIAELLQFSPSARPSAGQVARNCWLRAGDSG

TSSK6, construct: Full length, human (from UniProt Q9BXA6)
relative phosphorylation
Conditions | at +1 | at +2 | at +3 | at +4 | at -1 | at -2 | at -3 | at -4 | at -5
A fixed | 0.866 | 0.53 | 0.939 | 0.483 | 1.08 | 1.85 | 1.52 | 1.26 | 2.13
D fixed | 0.814 | 0.32 | 1.61 | 0.385 | 0.442 | 0.203 | 0.21 | 0.354 | 0.243
E fixed | 0.876 | 0.568 | 0.702 | 0.265 | 0.603 | 0.328 | 0.335 | 0.562 | 0.234
F fixed | 0.806 | 1.16 | 1.03 | 1.5 | 0.537 | 0.586 | 0.45 | 0.532 | 0.466
G fixed | 0.426 | 0.258 | 0.513 | 0.584 | 0.604 | 0.649 | 0.965 | 1.22 | 0.542
H fixed | 1.23 | 3.4 | 1.89 | 0.696 | 0.82 | 0.868 | 0.848 | 1.32 | 0.607
I fixed | 0.765 | 1.51 | 0.506 | 2.46 | 0.579 | 0.891 | 0.724 | 0.673 | 1.45
K fixed | 1.45 | 0.403 | 1.09 | 0.543 | 2.1 | 3.12 | 2.57 | 2.67 | 0.911
L fixed | 0.925 | 1.38 | 0.645 | 3.38 | 0.657 | 0.416 | 0.61 | 0.721 | 1.71
M fixed | 1.16 | 1.69 | 0.825 | 1.68 | 0.874 | 0.629 | 0.779 | 0.968 | 0.703
N fixed | 1.38 | 0.574 | 1.94 | 0.653 | 0.876 | 0.87 | 0.72 | 0.758 | 0.508
P fixed | 0.155 | 0.299 | 0.204 | 0.591 | 1.83 | 0.446 | 1.35 | 0.544 | 1.46
Q fixed | 1.56 | 0.847 | 1.02 | 0.605 | 1.35 | 1.23 | 0.962 | 0.943 | 0.999
R fixed | 1.83 | 0.499 | 1.25 | 0.506 | 2.4 | 2.11 | 3.07 | 2.22 | 1.93
V fixed | 0.932 | 0.96 | 0.59 | 1.42 | 0.804 | 1.55 | 0.773 | 0.938 | 1.73
W fixed | 0.85 | 1.08 | 1.27 | 0.677 | 0.662 | 0.518 | 0.571 | 0.641 | 0.469
Y fixed | 0.97 | 1.52 | 0.981 | 0.582 | 0.778 | 0.747 | 0.555 | 0.685 | 0.902
pThr fixed | 0.547 | 0.29 | 0.216 | 0.269 | 0.566 | 0.279 | 0.724 | 0.748 | 0.793
pTyr fixed | 0.534 | 0.459 | 0.32 | 0.268 | 0.417 | 0.427 | 0.519 | 0.447 | 0.752
